Biological target: Bio-GrBP5 (biotin-graphite binding peptide fusion, Bio-…)
Test: integrated photoluminescence at 605 nm (514 nm laser) of SA-QD immobilised on bio-GrBP5 nanowires on graphite; the row 'SA-QD Bare' (38019.9, Std. Dev. 8427) is on graphite without peptide

“Cd-Se Qdot 605-streptavidin conjugate (Q10101MP, Life Technologies) (from UniProt P22629 37-163)” showed an Intensity (AU) of 88200 AU.

— patent US20140249052A1
